Measured values from patent US11098081B2, “Epitope tag and method for detection and/or purification of tagged polypeptides” (ChromoTek GmbH, priority 2015, dated 2021).
Values joined by “and” are separate entries in the source; they are usually repeats but may differ in a detail not shown here. Equal values may be shown once.

Legend:
[1] = biological target: GFP with a C-terminal BC2-tag (GFPBC2T) (Aequorea victoria, UniProt P42212, F64L/H231L/S65T)
Protocol: For surface plasmon resonance spectroscopy (SPR)-based affinity measurements. […] The obtained data sets were evaluated using the 1:1 Langmuir binding model with mass transfer. As a control.
The affinity measurements of the BC2 nanobody and the indicated mutants thereof to GFPBC2T were performed using surface plasmon resonance spectroscopy with a Biacore 3000 instrument (GE-Healthcare). GFPBC2T was covalently coupled on dextran fibers of a CM5 sensorchip (GE Healthcare) to a response level of 500 RU. One flow cells was activated and blocked in the absence of protein to determine background, another was loaded with untagged GFP as a control against unspecific binding. […] Each measurement was done in duplicates. As running dilution buffer 10 mM HEPES pH 7.4, 150 mM NaCl, 0.5% surfactant Tween was used. Measurements were performed at 25° C. For the association of BC2-Nb a How rate of 50 μl/min for 15 s and for the dissociation a flow rate of 50 μl/min for 600 s was applied. The regeneration was induced by injection of 23 μl regeneration solution at a flow rate of 30 μl/min. As regeneration solution 10 mM glycine-HCl pH 2.0 was used. The data was evaluated using the software Bia evaluation 4.1 and the 1:1 Langmuir binding model with mass transfer.

[2] = biological target: T1, full-length β-catenin or domains (N-terminus aa 1-119, armadillo domain, C-terminus) (Homo sapiens, UniProt P35222); assay: Domain mapping of β-catenin binders (microsphere-based sandwich immunoassay); type: binding
T1 construct: full-length β-catenin or the following domains of β-catenin: N-terminus aa 1-119; made in house; host or cells: E. coli BL21(DE3) CodonPlus-RIL
T1 sequence (P35222 1-119): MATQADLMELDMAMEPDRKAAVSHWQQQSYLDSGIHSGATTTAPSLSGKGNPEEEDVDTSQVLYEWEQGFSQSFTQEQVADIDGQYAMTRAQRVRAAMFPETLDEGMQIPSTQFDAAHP
Protocol: Microsphere-immobilized Nbs were incubated with GST-fusion constructs comprising full-length β-catenin or indicated domains. Captured β-catenin constructs were detected with domain-specific antibodies. For direct comparison, fluorescence intensities obtained with domain-specific antibodies were normalized to signals obtained with an anti-GST-antibody.
BC2-Nb was covalently immobilized on microspheres using a modified manufacturer's protocol described in Poetz et al. ((2009) Microsphere-based co-immunoprecipitation in multiplex. Analytical biochemistry 395, 244-248). Immobilized BC2-Nb was incubated with purified proteins representing full-length β-catenin or the following domains of β-catenin: N-terminus aa 1-119, armadillo domain aa 120-683 and C-terminus aa 683-781. Purified Glutathion-S-transferase (GST) was used as a negative control. Concentrations range from 0.25 μg/ml to 2 μg/ml. Bound proteins were detected with domain-specific antibodies including ABC antibody clone 8E7 (Merck Millipore) specific for the N-terminus, anti-β-catenin 9G10 (Merck Millipore) targeting the armadillo domain and anti-β-catenin clone 14 (Becton Dickinson) specifically recognizing the C-terminus. To detect unspecific binding of the BC2-Nb to GST an antibody against GST (6G9, ChromoTek) was used. […] The microspheres were measured in a FlexMap 3D instrument (Luminex). […]

[3] = test system: peptides of the β-catenin N-terminus (aa 1-127); assay: Epitope mapping (pepscan) with biotinylated BC2-Nb on peptide-coated microspheres; type: binding, human
Excerpt: (SEQ ID NO: 4), […] […] (SEQ ID NO: 65).
As negative controls, microspheres comprising Ovalbumin and the Myc-peptide ([…]) covalently coupled to OVA-microspheres were used.

[4] = test system: HeLa cells expressing mCherry-VIMBC2T or GFP-PCNABC2T; assay: Immunocytochemistry with fluorescently labeled BC2-Nb; type: cell-based, human; conditions: mCherry-VIMBC2T (AF488) or GFP-PCNABC2T (ATTO647)
Excerpt: (b) HeLa cells ectopically expressing mCherry-VIMBC2T or eGFP-PCNABC2T were fixed either with methanol or PFA, respectively, followed by staining with the indicated fluorescently labeled BC2-Nbs and DAPI. Scale bar 25 μm.
HeLa cells ectopically expressing untagged mCherry-VIM or eGFP-PCNA were fixed with methanol or PFA, respectively, and stained with the indicated fluorescently labeled BC2-Nbs and DAPI. Scale bar 25 μm.
For immunocytochemistry 5-10×10^3 adherent HeLa cells per well of a μClear 96 well plate (Greiner) were transfected with plasmids coding for C-terminally BC2-tagged vimentin or PCNA After 24 h, cells were washed once with PBS and fixed with 4% w/v paraformaldehyde (PFA) in PBS for 15 mm at RT or with methanol for 15 mm at −20° C. After removal of the fixative and washing twice with PBS, cells were blocked and permeabilized with 3% w/v BSA and 0.1% v/v Triton X-100 in PBS for 1 h at RT Subsequently, labeled BC2 nanobody was added with a final concentration of 10-15 μg/ml and 4′,6-diamidino-2-phenyl indole (DAPI, Sigma Aldrich) with a final concentration of 1 μg/ml for overnight incubation at 4° C. Unbound nanobody and DAPI were removed by washing 3 limes with a mixture of PBS and 6% v/v 5 M NaCl in H2O. Images of FIG. 4 b and FIG. 10 b were acquired with an Image Xpress micro XL system. Confocal images of FIG. 10 a were acquired with an ImageXpress Micro Confocal.

[5] = test system: BC2-tagged proteins (eGFP-PCNABC2T, mCherry-VIMBC2T); assay: Western blot detection with fluorescently labeled BC2-Nb; type: binding
Protocol: (b) For Western blot detection using fluorescently labeled B2-Nb (BC2-NbAF488) indicated amounts of the input fractions (as shown in (a)) were subjected to SDS-PAGE and immunoblotting. The Western blots were probed with BC2-N488 followed by detection with anti-PCNA (left panel) or anti-Vimentin (right panel) antibodies. As loading control blots were probed with an anti-GAPDH antibody (lower panel).
Denaturing polyacrylamide gel electrophoresis (SDS-PAGE) was performed according to standard procedures Protein samples were boiled in 2× SDS-sample buffer (60 mM Tris/HCl, pH 6.8; 2% (w/v) SDS; 5% (v/v) 2-mercaploethanol, 10% (v/v) glycerol, 0.02% bromophenole blue). For immunoblotting proteins were transferred on nitrocellulose membranes (Bio-Rad Laboratories).
Purified BC2 nanobody (1 mg) was labeled with the NHS-activated fluorescent dyes Alexa488 (Life technologies) or Atto647 (Atto-Tec) according to manufacturer's guidelines. After coupling, unbound dye was removed by separation on PD-10 Desalting Columns (GE Healthcare). For immunoblot analysis. 5 μg of BC2-NbAF488 was diluted in 4 ml 3% BSA diluted in TBS, 0.05% Tween20 and Western blots were incubated for 1 h at RT.

B1: BC2-Nb: nanobody; variable region of a heavy chain antibody of Camelidae, 122 aa, SEQ ID NO: 6, binds the BC2 epitope tag (protein)
VHH: QVQLVESGGGLVQPGGSLTLSCTASGFTLDHYDIGWFRQAPGKEREGVSCINNSDDDTYYADSVKGRFTIFMDNAKDTVYLQMNSLKPEDTAIYYCAEARGCKRGRYEYDFWGQGTQVTVSS
modifications: BC2-Nb
Rmax [RU] ([1]; SPR, GFPBC2T on CM5 chip, 1:1 Langmuir binding model with mass transfer): 170 ± 0.34 RU
Kd ([1]; SPR, GFPBC2T on CM5 chip, 25° C., 1:1 Langmuir binding model with mass transfer): 1.4 nM and ~1.4 nM
kon (M^−1s^−1) ([1]; SPR, association rate constant): 4.6 ± 0.04 × 10^5 M^−1s^−1
koff (s^−1) ([1]; SPR, dissociation rate constant): 6.4 ± 0.27 × 10^−4 s^−1
fold higher affinity compared to FLAG, HA, c-myc or EPEA systems ([1]; comparison with literature values of prior-art tag systems): 10-100 fold
β-catenin domain recognized [2]: exclusively recognizes the N-terminal domain (aa 1-119)
binding to epitope peptide with phosphorylated Ser23 [3]: completely abolishes binding
binding to overlapping 15-mer peptides ([3]; 29 peptides covering aa 1-127): strong binding to two consecutive peptides comprising the residues 13-31
amino acid sequence recognized (minimal epitope) ([3]; N- and C-terminally truncated peptides): PDRKAAVSHWQQ

B2: BC2-NbATTO647: BC2-Nb coupled to the organic dye ATTO647 (conjugate)
VHH: QVQLVESGGGLVQPGGSLTLSCTASGFTLDHYDIGWFRQAPGKEREGVSCINNSDDDTYYADSVKGRFTIFMDNAKDTVYLQMNSLKPEDTAIYYCAEARGCKRGRYEYDFWGQGTQVTVSS
modifications: left off: small tags and cut ends
notes: BC2-Nb coupled to the organic dye ATTO647
co-localization with BC2-tagged protein in fixed HeLa cells [4]: clear co-localization

B3: BC2-NbAF488: BC2-Nb chemically coupled to the organic dye AlexaFluor488 (conjugate)
VHH: QVQLVESGGGLVQPGGSLTLSCTASGFTLDHYDIGWFRQAPGKEREGVSCINNSDDDTYYADSVKGRFTIFMDNAKDTVYLQMNSLKPEDTAIYYCAEARGCKRGRYEYDFWGQGTQVTVSS
modifications: left off: small tags and cut ends
notes: BC2-Nb chemically coupled to the organic dye AlexaFluor488
signal for endogenous β-catenin in Western blot ([5]; in the presence of BC2-tagged proteins): no signal for β-catenin was detected
specificity in Western blot detection ([5]; untagged proteins not detected): highly specific for BC2-tagged proteins
co-localization with BC2-tagged protein in fixed HeLa cells [4]: strong co-localization
